# Assay results from publication PMC11749100, “Blockade of Arf1-mediated lipid metabolism in cancers promotes tumor infiltration of cytotoxic T cells via the LPE-PPARγ-NF-κB-CCL5 pathway”.
# B1: CCL5 promoter probe (dsDNA)
# DNA 1: GTCTTTTGTGGAAACTCCCCAAG
# DNA 2: CTTGGGGAGTTTCCACAAAAGAC
# How the values were obtained:
# PPARγ = PPARγ (mouse, UniProt P37238 1-505); experiment: EMSA; Beyotime GS009 EMSA kit; 1 uL protein + 2 uL DNA, 20 min at room temperature; 4% non-denaturing PAGE; buffer, salt and pH not stated; conditions: protein: recombinant; blunt
# p65 (NF-kB) = p65 (NF-kB) (UniProt Q04207 1-549); experiment: as above; conditions: protein: recombinant; tags: His (pET-21b(+)); blunt
# Chain of p65 (NF-kB) (Q04207 whole entry): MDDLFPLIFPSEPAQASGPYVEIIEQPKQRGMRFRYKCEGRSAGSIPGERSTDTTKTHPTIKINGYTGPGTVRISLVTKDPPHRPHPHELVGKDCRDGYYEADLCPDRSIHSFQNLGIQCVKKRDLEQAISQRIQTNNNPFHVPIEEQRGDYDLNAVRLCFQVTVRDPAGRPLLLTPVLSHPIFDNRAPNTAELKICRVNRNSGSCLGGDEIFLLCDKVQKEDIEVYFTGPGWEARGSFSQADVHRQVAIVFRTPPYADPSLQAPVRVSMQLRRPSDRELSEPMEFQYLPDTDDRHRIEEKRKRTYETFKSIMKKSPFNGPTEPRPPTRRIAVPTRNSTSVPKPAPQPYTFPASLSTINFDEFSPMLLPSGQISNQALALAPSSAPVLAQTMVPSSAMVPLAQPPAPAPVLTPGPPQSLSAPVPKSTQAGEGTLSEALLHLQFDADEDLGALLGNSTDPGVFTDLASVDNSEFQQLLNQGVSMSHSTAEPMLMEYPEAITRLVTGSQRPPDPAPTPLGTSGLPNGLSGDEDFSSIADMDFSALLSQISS
binder,measurement,setting,value
B1,binding result,PPARγ,no binding
same,binding result,p65 (NF-kB),binds
